Results on 22 molecules are retold here after patent US20110286916A1 (published 2011).

Sequences and labels used below:
B1: N1wc21 (scFv, V domains shown)
VH: QVQLVESGAEVKKPGASVKVSCKASGYTFTDHYIQWLRQAPGQGLEWMGWMNPKSGGTNYAQKFQGRVTLTRDTSISTAYMDLSGLRFDDTAIYFCASDPTIPPSPNYDYYYYAMDLWGKGTLVTVSS
VL: SYELTQPPSVSVSPGQTARITCSGDALPDKYVHWYQQKSGQAPVLVLFDDSKRPSGIPERFSGSSSGTVATLIISGAQVEDEGDFFCYSTDSSGNERVFGGGTKLTVL
notes: phage scFv
B2: hN1S3-003 (scFv, V domains shown)
VH: EVQLVQSGPEVKKPGTSVKVSCKASGFTFTNSAVQWVRQARGQRLEWIGWIVVGSGNTNYAQKFQERVTITRDMSTSTAYMELSSLKSEDTAVYYCVADTVYWGQGTLVTVSS
VL: not shown
notes: phage scFv
B3: hN1S3-040 (scFv, V domains shown)
VH: B2 VH with N31S, K87R, Q105R, L108T
VL: QSVLTQPPSASGTPGQGVTISCSGSSSNIGRNSVNWYQQLPGTAPKLLIYGDNQRPSGVPDRFSGSKPGTSASLAISGLQSDDEAHYYCAAWDDSLNGWVFGGGTKVTVL
notes: phage scFv
B4: N1wc11 (scFv, V domains shown)
VH: B2 VH with T58I, Q105R, L108M
VL: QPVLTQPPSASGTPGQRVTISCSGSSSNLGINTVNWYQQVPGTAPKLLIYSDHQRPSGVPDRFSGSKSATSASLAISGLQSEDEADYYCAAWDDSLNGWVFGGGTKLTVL
notes: phage scFv
B5: hN1S3-007 (scFv, V domains shown)
VH: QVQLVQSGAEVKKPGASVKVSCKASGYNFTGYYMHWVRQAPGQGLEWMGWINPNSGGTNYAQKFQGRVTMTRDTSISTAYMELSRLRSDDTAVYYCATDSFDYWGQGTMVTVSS
VL: QAVLTQPSSVSGTPGQRVTMSCSGGRSNIGSNAVNWYQQFPGTAPKLLMYNTNQRPSGVPGRFSGSKSGASASLAISGLQSDDEADYYCSSWDDSLNGLEFGGGTKLTVL
notes: phage scFv
B6: N1wc266 (scFv, V domains shown)
VH: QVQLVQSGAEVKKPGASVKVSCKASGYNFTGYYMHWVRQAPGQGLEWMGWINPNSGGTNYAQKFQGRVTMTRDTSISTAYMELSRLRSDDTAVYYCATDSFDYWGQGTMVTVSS
VL: B5 VL with T108E, V109I, L110K
notes: phage scFv
B7: hN1S3-153 (scFv, V domains shown)
VH: QVQLQESGGGLVQPGGSLSLSCATSGFTFGNYVMRWVRQAPGKGLEWVSTITEGGGDFIYYADSVKGRFAISRDNSKSTVYLHMNGLRVEDTAVYYCAKSGGDDNSNYNFEYWGQGTLVTVSS
VL: QAVLTQPSSVSGAPGQRVIISCTGTSSNTGAGYYVNWYQQLPGAAPKVLIFGNDNRPSGVPDRFSGAKSGTSASLAITGLQAEDEADYYCQSYDRSLSGWVFGGGTKLTVL
notes: phage scFv
B8: hN1S3-002 (scFv, V domains shown)
VH: GVQLVQSGAEVKKPGASVKVSCKASGYTFTDYYVHWVRQAPGQGPEWMGWINPNNGGTKYAQKFQGRVTMTTDTSTSTAYMELRSLRSDDTALYYCARDLLPYYGDYRADKIDDFDIWGRGTLVTVSS
VL: QSVLTQPPSASGTPGQRVTISCSGSSSNIGSNTVNWYQRLPGAAPQLLIYNNDQRPSGIPDRFSGSKSGTSGSLVISGLQSEDEADYYCASWDDSLNGRVFGGGTKLTVL
notes: phage scFv
B9: hN1S3-107 (scFv, V domains shown)
VH: EVQLVQSGPEVKKPGASVKVSCKASGYTFTDYFLNWVRQAPGQGLEWIGWINPNTGGTNYAQNFQGRVTVTRDASISTAYMELRSLTSADTAIYYCARGAYDYVWGSHRYVADAFDIWGQGTLVTVSS
VL: B8 VL
notes: phage scFv
B10: N1wc16 (scFv, V domains shown)
VH: QVQLQQSGAEVKTPGASVKVSCKASGYTFTDNYIHWVRQAPGQGLEWMGRINVNSGATNYARKFQGRVTMTGDTSISTAYMDLSRLKSDDTAVYYCARDFRYSGVDVWGQGTMVTVSS
VL: QSVLTQPPSVSVAPGQTATLSCVGDAIERKSVHWYQQRPGQAPVLVVHDDSDRPSGIPDRISGSNSGNTATLTITRVEVGDEADYFCQVWDTSSGHDAVVFGGGTKLTVL
notes: phage scFv
B11: hN1S3-108 (scFv, V domains shown)
VH: QVQLVQSGAEVRKPGASVKVSCKASGYTFTDYYLHWVRQAPGLGLEWMGWINPNTGGTDYGQKFQGRVTMTRDTSINTAYMELSSLRSDDTAVYYCARGAYDYVWGSHRYVADAFDIWGQGTTVTVSS
VL: DIVMTQSPSTLSASVGDRVTITCRASQGISSWLAWYQQKPGRAPKVLIYKASTLESGVPSRFSGSGSGTDFTLTISSLQPEDFATYYCQQSYSTPWTFGQGTKLEIK
notes: phage scFv
B12: hN1S3-030 (scFv, V domains shown)
VH: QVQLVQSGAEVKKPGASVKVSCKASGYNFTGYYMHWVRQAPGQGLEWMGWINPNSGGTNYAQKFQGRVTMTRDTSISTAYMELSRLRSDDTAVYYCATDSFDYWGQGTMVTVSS
VL: QSVLTQPPSASGTPGQRVSISCSGSSSNIGSNYVYWYQQLPGTAPKVLVYRNNQRPSGVSDRFSGSKYGTSASLAISGLRSEDEADYYCGSWDDSLSGVVFGGGTKVTVL
notes: phage scFv
B13: hN1S3-087 (scFv, V domains shown)
VH: QVQLVQSGAEVKKPGASVRISCKTSGFTFTSYFIHWVRQAPGQRPEWMGVINPSRGNADYAPRFRGRVTMTRDKSTHTVYMDLKSLRSDDAAIYYCARDRLGGLLDYYDSSDSSKNFDAFDFWGQGTLVTVSS
VL: NFMLTQPHSVSESPGKTVTISCTRSSGSIGSSYVQWYQQRPGTSPVTIIYEDSQRPSGVPDRFSGSIDNSANSASLTISGLKTEDEADYYCQSYDANNRVFGGGTKLTVL
notes: phage scFv
B14: hN1S3-190 (scFv, V domains shown)
VH: B13 VH
VL: SSELTQDPAVSVALGQTVRITCQGDSLRSNYPSWYQQKPGQAPLLVIYSENRRPSGIPDRFSASRSGNTASLTITGAQAEDEADYYCHSRGSSGNHKVFGGGTQLTVL
notes: phage scFv
B15: hN1S3-127 (scFv, V domains shown)
VH: EVQLVQSGAEVKKPGASVKVSCKASGYNFTGYYMHWVRQAPGQGLEWMGWINPNSGGTNYAQKFQGRVTMTRDTSISTAYMELSRLRSDDTAVYYCATDSFDYWGQGTLVTVSS
VL: QSVLTQPPSVSGAPGQRVTISCSGSTSNIGGNPVTWYQQFPGTAPKLLVYRDNQRPSGVADRFSGSRSGTSASLAISGLQSEDEADFYCASWDDSLGGVVFGGGTKLTVL
notes: phage scFv
B16: hN1S3-006 (scFv, V domains shown)
VH: B15 VH with E1Q, M34I, T69I, Q106R
VL: QAVLTQPSSASGTAGQRVTISCSGSNSNIGSNTVNWYQQLPGTTPKLLIYSNNERPSGVPDRFSGSKSGTSASLAISGLQSDDEADYYCAAWDDSLNGYVFGTGTKVTVL
notes: phage scFv
B17: hN1S3-136 (scFv, V domains shown)
VH: B15 VH with E1Q, V5Q, Q6E, Q106R, L109T
VL: QAVLTQPSSESGTPGQRVTISCSGTTSNIGDNTVTWYQQLPGTAPKLLIYSNTQRPSGVPARFSGSKSGTSASLAISGLQSGDEADYYCAAWDDSRNGYVFGTGTKLTVL
notes: phage scFv
B18: hN1S3-177 (scFv, V domains shown)
VH: B15 VH with T58A, Q106R
VL: QAVLTQPSSASGTPGQRVTISCSGSSSNIGTNYVYWYQHLPGMAPKLLLYSNNQRPSGVPDRFSGSKSGPSASLAISGLRSEDEADYYCAAWDDSLSGLVFGGGTKLTVL
notes: phage scFv
B19: hN1S3-135 (scFv, V domains shown)
VH: B15 VH with Q106K
VL: LPVLTQPPSVSEAPRQRVTISCSGSSFNIGNNAVNWYQQLPGKAPKLLIYYDDLLPSGVSDRFSGSKSGTSASLAISGLQSEDEADYYCAAWDDSLNAVVFGGGTKVTVL
notes: phage scFv
B20: hN1S3-088 (scFv, V domains shown)
VH: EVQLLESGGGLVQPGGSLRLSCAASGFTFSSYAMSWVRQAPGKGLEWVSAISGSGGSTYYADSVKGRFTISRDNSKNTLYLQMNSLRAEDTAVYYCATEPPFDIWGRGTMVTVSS
VL: QSVLTQPPSVSGTPGQRVTISCSGSSSNIGNDVVNWYQQLPGTAPKLLIYNDYQRPSGVSDRFSGSKSGTSAYLAISGLQSEDEADYHCAVWDDSLDGWVFGGGTKLTVL
notes: phage scFv
B21: hN1S3-112 (scFv, V domains shown)
VH: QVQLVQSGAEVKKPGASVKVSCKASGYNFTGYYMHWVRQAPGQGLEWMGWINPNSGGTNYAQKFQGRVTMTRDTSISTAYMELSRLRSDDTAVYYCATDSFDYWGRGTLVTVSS
VL: LPVLTQPPSASGTPGQRVTISCSGSSSNIGNNYVYWYQQLPGTAPKLLIYRNNQRPSGVPDRFSASKSGTSASLVISGIRSEDEAEYYCGGWDDSLSGQVVFGGGTKLTVL
notes: phage scFv
B22: hN1S3-182 (scFv, V domains shown)
VH: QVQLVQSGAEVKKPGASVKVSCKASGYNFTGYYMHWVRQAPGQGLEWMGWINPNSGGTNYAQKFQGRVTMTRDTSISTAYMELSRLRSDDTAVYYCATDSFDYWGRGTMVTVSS
VL: QAVLTQPSSVSGAPGQRVTISCTGSSSNIGSPYDVNWYQQFPGTAPKLLIYGNINRPSGVPDRFSGSKSGTSASLAITGLQAEDEADYYCQTYDSTLNGAVFGGGTKLTVL
notes: phage scFv

Residue numbers refer to the chain shown, from its start.

The first test deals with T1, human full-length Notch1 with C-terminal FLAG tag, stably expressed on 293 FlpIn (TREx) cells (human, UniProt P46531 19-2555).
T1 construct: tetracycline/doxycycline-induced expression from pcDNA5/FRT/TO-HN1+FLAG; also called hN1; 293_N1
Nature of the test: FACS, phage scFv. A general note: A flow cytometer gives signals particle by particle.
On to B1, for which the binding result is listed as “binds”.

With B2, the binding result is “binds”.

Turning to B3, the binding result was “binds”.

On to B4, for which the binding result is “binds”.

As to B5, the binding result is on record as “binds”.

In the case of B6, the binding result is “binds”.

Regarding B7, the binding result is reported as “binds”.

With B8, the binding result is listed as “binds”.

In the case of B9, the binding result was “binds”.

Take B10: the binding result is on record as “binds”.

Consider B11, for which the binding result is “binds”.

For the molecule B12, the binding result was “binds”.

Take B13: the binding result was “binds”.

For B14, the binding result is on record as “binds”.

As for B15, the binding result is “binds”.

As for B16, the binding result is reported as “binds”.

As to B17, the binding result was “binds”.

Consider B18, for which the binding result is “binds”.

For B19, the binding result is reported as “binds”.

As to B20, the binding result is “binds”.

In the case of B21, the binding result is “binds”.

As for B22, the binding result is given as “binds”.

In a further test the target is T2, human full-length Notch3 with C-terminal FLAG tag, stably expressed on 293 FlpIn (TREx) cells (human, UniProt Q9UM47 40-2321).
T2 construct: whole, on cells; made by the same strategy as the Notch1 line; also called 293-N3; hN3
Nature of the test: FACS, phage scFv.
As for B1, the binding result is “binds”.

On to B2, for which the binding result was “binds”.

Take B3: the binding result is given as “binds”.

For B4, the binding result was “binds”.

For B5, the binding result is given as “binds”.

Turning to B6, the binding result was “binds”.

For B7, the binding result was “binds”.

Take B8: the binding result is listed as “binds”.

For the molecule B9, the binding result is “binds”.

In the case of B10, the binding result is “binds”.

Consider B11, for which the binding result is “binds”.

B12: the binding result is “binds”.

Take B13: the binding result was “binds”.

On to B14, for which the binding result is reported as “binds”.

Regarding B15, the binding result is given as “binds”.

Take B16: the binding result is “binds”.

As to B17, the binding result is “binds”.

As to B18, the binding result is “binds”.

As to B19, the binding result is given as “binds”.

Consider B20, for which the binding result was “binds”.

As for B21, the binding result was “binds”.

Turning to B22, the binding result is “binds”.
